Measurements from publication PMC10208570 (2023).
Residue numbers refer to the chain shown, from its start. In names and notes the source's numbering stands. Like-named read-outs stand apart in the source and are kept apart here. Bridges are numbered along the chain shown (N, C = ends). Where no end group is shown, it is not given here.

B1: mLptA (E. coli), LptA(25-185) E39V M47A R76A (domain or fragment)
chain: GAFAVTGDTDQPIHIVSDQQSLDAQGNVVTFTGNVIVTQGTIKINADKVVVTAPGGEQGKEVIDGYGKPATFYQMQDNGKPVEGHASQMHYELAKDFVVLTGNAYLQQVDSNIKGDKITYLVKEQKMQAFSDKGKRVTTVLVPSQLQDKNNKGQTPAQKKGN

How the values were obtained:
Experiment in all cases: FP
[1] = biological target: T1, LptAm^Q62L (E. coli) (E. coli (ATCC 25922))
T1 chain: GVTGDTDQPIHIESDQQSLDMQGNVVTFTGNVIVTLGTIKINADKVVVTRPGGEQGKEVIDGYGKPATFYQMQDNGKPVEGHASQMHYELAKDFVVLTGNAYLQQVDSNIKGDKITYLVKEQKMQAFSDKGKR

[2] = biological target: T2, K. pneumoniae LptAm (K. pneumoniae (ATCC 13883))
T2 chain: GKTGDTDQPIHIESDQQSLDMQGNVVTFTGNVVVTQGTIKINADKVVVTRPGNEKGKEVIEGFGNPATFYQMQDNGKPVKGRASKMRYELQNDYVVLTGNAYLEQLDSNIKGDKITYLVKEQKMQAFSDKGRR

[3] = biological target: T3, LptAm (E. coli), monomeric truncated variant of LptA (E. coli (ATCC 25922))
T3 chain: T1 chain with L36Q

[4] = biological target: K. pneumoniae LptAm^Q62L (K. pneumoniae (ATCC 13883))
[5] = biological target: T1, LptAm^Q62L (E. coli)
[6] = biological target: T2, K. pneumoniae LptAm
[7] = biological target: T3, LptAm (E. coli), monomeric truncated …
[8] = biological target: T1, LptAm^Q62L (E. coli)
[9] = biological target: T3, LptAm (E. coli), monomeric truncated …

| Binder | IC50 [1] | IC50 [2] | IC50 [3] | IC50 [4] | Ki [4] | Ki [5] | Ki [6] | Ki [7] | IC50 [8] | IC50 [9] |
| --- | --- | --- | --- | --- | --- | --- | --- | --- | --- | --- |
| KKPVPIIYCNRRTGKCQRM (disulfide 9-16 (inferred)) [peptide 1] | 30.4 nM | 9.6 nM | 6.6 nM | 20.8 nM | 18.2 nM | 20.5 nM | 0.9 nM | 1.1 nM |  |  |
| B1 |  |  |  |  |  |  |  |  | 102 nM | 213 nM |
| GSKKPVPIIYCNRRTGKCQRM [Thanatin] | 50 nM |  |  |  |  |  |  |  |  |  |
